These results are taken from PMC12167477, “Setdb1 and Atf7IP form a hetero-trimeric complex that blocks Setdb1 nuclear export” (The Journal of Biological Chemistry, 2025).

B3: biotinylated Avitag-MBP-Atf7IP(574-666) (domain or fragment, human, UniProt Q6VMQ6 574-666, looked up)
chain: EEEYEAEFQVKITAKGDINQKLQKVIQWLLEEKLCALQCAVFDKTLAELKTRVEKIECNKRHKTVLTELQAKIARLTKRFEAAKEDLKKRHEH
modifications: biotin on the AviTag (cultures supplemented with 40 uM biotin, birA co-expressed)
notes: The methods describe only the Avitag-MBP form as purified on its own; also called MBP-Atf71P; source: E. coli, co-expressed with birA and biotin, purified (MBPTrap, Superdex 200); not shown: AviTag, N-terminal, kept; MBP, N-terminal, kept

Data set [1] concerns the target B3. As to the kind of experiment: AlphaScreen or HTRF; AlphaScreen His-Detection kit: nickel chelate acceptor beads and streptavidin donor beads; both proteins at 20 nM, or one at 20 nM and the other 0 to 20 nM; 50 mM MOPS, 50 mM CHAPS, 50 mM NaF, 100 ug/ml BSA, pH 7; room temperature; triplicates. The note with it: both partners purified.
Data set [2] deals with the molecule itself. As to the kind of experiment: SEC; gel filtration of isolated MBP-Atf7IP(574-666) with and without Tween 20 in the buffer.
The target in another data set is T1, his-sumo-Setdb1(2-115) (human, UniProt Q15047 2-115).
T1 construct: also called his-sumo-Setdb1(2-114); source: E. coli (BL21DE3 or Rosetta2), purified (HisTrap, dialysis); not shown: His6, N-terminal, kept; SUMO, N-terminal, kept
As to the kind of experiment: AlphaScreen or HTRF; AlphaScreen His-Detection kit: nickel chelate acceptor beads and streptavidin donor beads; both proteins at 20 nM, or one at 20 nM and the other 0 to 20 nM; 50 mM MOPS, 50 mM CHAPS, 50 mM NaF, 100 ug/ml BSA, pH 7; room temperature; triplicates. As to conditions: both partners purified.

For the next data set, the target named is T2, GST-Setdb1(2-115) (human, UniProt Q15047 2-115).
T2 construct: source: E. coli, purified (GSTTrap, Superdex 200); not shown: GST, N-terminal, kept
In words: pull-down; 0.5 uM GST-fusion immobilised on glutathione Sepharose beads; 1.5 uM hCrm1 with or without 4.5 uM RanGTP; with or without pre-incubation with MBP-Atf7IP(574-666) (3-fold or 15-fold excess); 20 mM HEPES 7.4, 110 mM potassium acetate, 2 mM magnesium acetate, 10% glycerol, 2 mM DTT, 0.005% Tween20; Coomassie SDS-PAGE. The note with it: both partners purified.

For data set [3], the target named is T3, MBP-Setdb1(2-115) (human, UniProt Q15047 2-115).
T3 construct: The methods list the MBP tag of the vectors as AviTag-Mbp; also called MBP-Setdb1(2-114); not shown: MBP, N-terminal, kept
As to the kind of experiment: SEC-MALS; co-expressed and purified complex, about 400 ul at about 1 mg/ml, Superdex 200 Increase 10/300. As to conditions: both partners purified.

Data set [4] concerns the molecule itself. As to the kind of experiment: native MS; co-expressed and purified MBP-Setdb1(2-115)/his-sumo-Atf7IP(574-666) complex, 500 nM, 400 mM ammonium acetate pH 7.9, 1 mM DTT; Q Exactive UHMR; HCD fragmentation.
Data set [5] deals with the molecule itself. In words: cross-linking; disulfide cross-linking of MBP-Atf7IP(574-666) with only C631, in isolation; SDS-PAGE with and without BME.
The target of data set [6] is T3, MBP-Setdb1(2-115). In words: pull-down; three tagged proteins co-expressed in E. coli, complex purified sequentially by the his tag and then the strep tag; SDS-PAGE. As to conditions: partners not purified.

B1: his-sumo-Setdb1(Δα1-α2; residues 50-115) (domain or fragment, human, UniProt Q15047 50-115, looked up)
chain: KMDCVQQRKKQLAELETWVIQKESEVAHVDQLFDDASRAVTNCESLVKDFYSKLGLQYRDSSSEDE
notes: source: E. coli, purified (HisTrap, dialysis); not shown: His6, N-terminal, kept; SUMO, N-terminal, kept
Consider B1, for which the “binding, percent of WT” value in data set [1] is ~30 % of WT.

B2: his-sumo-Setdb1(Δα1; residues 35-115) (domain or fragment, human, UniProt Q15047 35-115, looked up)
chain: ISMEELRHFIDEELEKMDCVQQRKKQLAELETWVIQKESEVAHVDQLFDDASRAVTNCESLVKDFYSKLGLQYRDSSSEDE
notes: as for B1
As to B2, the “binding, percent of WT” value in data set [1] was ~80 % of WT.

Turning to B3, the binding result (in data set [2]; with his-sumo-Setdb1(2-115); with GST-Setdb1(2-115)) was “binds” in each case.

B4: his-sumo-Atf7IP(574-666) (domain or fragment, human, UniProt Q6VMQ6 574-666, looked up)
chain: EEEYEAEFQVKITAKGDINQKLQKVIQWLLEEKLCALQCAVFDKTLAELKTRVEKIECNKRHKTVLTELQAKIARLTKRFEAAKEDLKKRHEH
notes: not shown: His6, N-terminal, kept; SUMO, N-terminal, kept
For B4, the “stoichiometry N” value with MBP-Setdb1(2-115) [3] amounted to 2 Atf7IP per Setdb1. In data set [4], the binding result is recorded as “binds”.

B5: MBP-Atf7IP(574-666) C608S C612S (domain or fragment, human, UniProt Q6VMQ6 574-666, looked up)
chain: EEEYEAEFQVKITAKGDINQKLQKVIQWLLEEKLSALQSAVFDKTLAELKTRVEKIECNKRHKTVLTELQAKIARLTKRFEAAKEDLKKRHEH
notes: The methods name the synthesised vector without the MBP tag on Atf7IP; the results call the protein MBP-Atf7IP; also called Atf7IP(C631); source: also used in isolation; not shown: MBP, N-terminal, kept
For the molecule B5, the binding result in data set [5] was “binds”.

B6: Atf7IP2(297-388), his-sumo- or Strep-tagged (domain or fragment, UniProt Q5U623 297-388, looked up)
chain: MKTSEQINENICVSLERQTAFLEQVRHLIQQEIYSINYELFDKKLKELNQRIGKTECRNKHEGIADKLLAKIAKLQRRIKTVLLFQRNCLKP
notes: Atf7IP2, coiled coil region, residues 297-388; Two differently tagged copies of one fragment, written as one molecule; in the mixed trimer with Atf7IP only the Strep-tagged copy was there; also called his-sumo-Atf7IP2(297-388); Strep-Atf7IP2(297-388); not shown: His6-SUMO (one copy) or Strep (the other copy), N-terminal, kept
Take B6: the “stoichiometry N” value with MBP-Setdb1(2-115) [6] is 2 Atf7IP2 per Setdb1.
